For one data set, the target named is T1, HiBgl3B (Mycothermus thermophilus, UniProt A0A191KCR2).
T1 construct: GenBank printed as KT203372, same as Hibgl3C, so probably a misprint of KT203371
Nature of the data set: pNPG hydrolysis, Dixon plot. The settings on record: read-out: Ki (mM) / pNPG; substrate pNPG 0.75 and 1 mM, glucose 5-50 mM; product inhibition, mode not stated. In kind it is biochemical.

The next data set has as its target HiBgl3A (Mycothermus thermophilus, UniProt A0A191KCR1). Description: pNPG hydrolysis, Dixon plot. In kind it is biochemical. The settings on record: read-out: Ki (mM) / pNPG; substrate pNPG 0.75 and 1 mM, glucose 5-50 mM; product inhibition, mode not stated.
The next data set deals with T2, HiBgl3C (Mycothermus thermophilus, UniProt A0A191KCR0).
T2 construct: the same GenBank number is also printed for Hibgl3B
T2 sequence (A0A191KCR0 18-733): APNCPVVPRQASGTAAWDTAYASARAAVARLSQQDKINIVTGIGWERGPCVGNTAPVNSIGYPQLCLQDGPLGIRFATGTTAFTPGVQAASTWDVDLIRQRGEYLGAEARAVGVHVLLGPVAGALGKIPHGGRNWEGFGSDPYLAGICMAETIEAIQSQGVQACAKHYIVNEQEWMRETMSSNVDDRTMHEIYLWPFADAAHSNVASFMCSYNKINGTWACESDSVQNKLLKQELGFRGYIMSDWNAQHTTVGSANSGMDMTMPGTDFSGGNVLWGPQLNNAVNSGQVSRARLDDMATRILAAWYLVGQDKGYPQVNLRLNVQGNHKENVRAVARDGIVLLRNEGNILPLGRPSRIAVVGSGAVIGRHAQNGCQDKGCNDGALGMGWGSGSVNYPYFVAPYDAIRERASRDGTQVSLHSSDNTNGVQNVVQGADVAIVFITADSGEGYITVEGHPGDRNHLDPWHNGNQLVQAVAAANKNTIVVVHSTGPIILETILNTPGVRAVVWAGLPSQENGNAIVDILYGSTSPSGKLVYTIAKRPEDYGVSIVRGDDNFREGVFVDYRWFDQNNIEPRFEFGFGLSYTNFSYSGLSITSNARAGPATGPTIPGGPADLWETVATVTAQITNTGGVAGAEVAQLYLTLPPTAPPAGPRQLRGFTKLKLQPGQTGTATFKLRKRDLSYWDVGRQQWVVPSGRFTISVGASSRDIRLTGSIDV
Nature of the data set: pNPG hydrolysis, Dixon plot. In kind it is biochemical. The settings on record: read-out: Ki (mM) / pNPG; substrate pNPG 0.75 and 1 mM, glucose 5-50 mM; product inhibition, mode not stated.

Substrate in the data set “purified protein”: O=[N+]([O-])c1ccc(O[C@@H]2O[C@H](CO)[C@@H](O)[C@H](O)[C@H]2O)cc1
Description: purified protein. The settings on record: 100 mM Na2HPO4-citric acid.

Setting [1] is: optimal conditions (pH 6.0, 50 °C), pH 6.0, 50.0 °C.
[2] abbreviates: optimal conditions (pH 5.5, 55 °C in table; 60 °C in text), pH 5.5.

Positions count from the first letter of the chain named. Names and notes keep the numbering of the source.

T1 sequence (A0A191KCR2 entry or part of it): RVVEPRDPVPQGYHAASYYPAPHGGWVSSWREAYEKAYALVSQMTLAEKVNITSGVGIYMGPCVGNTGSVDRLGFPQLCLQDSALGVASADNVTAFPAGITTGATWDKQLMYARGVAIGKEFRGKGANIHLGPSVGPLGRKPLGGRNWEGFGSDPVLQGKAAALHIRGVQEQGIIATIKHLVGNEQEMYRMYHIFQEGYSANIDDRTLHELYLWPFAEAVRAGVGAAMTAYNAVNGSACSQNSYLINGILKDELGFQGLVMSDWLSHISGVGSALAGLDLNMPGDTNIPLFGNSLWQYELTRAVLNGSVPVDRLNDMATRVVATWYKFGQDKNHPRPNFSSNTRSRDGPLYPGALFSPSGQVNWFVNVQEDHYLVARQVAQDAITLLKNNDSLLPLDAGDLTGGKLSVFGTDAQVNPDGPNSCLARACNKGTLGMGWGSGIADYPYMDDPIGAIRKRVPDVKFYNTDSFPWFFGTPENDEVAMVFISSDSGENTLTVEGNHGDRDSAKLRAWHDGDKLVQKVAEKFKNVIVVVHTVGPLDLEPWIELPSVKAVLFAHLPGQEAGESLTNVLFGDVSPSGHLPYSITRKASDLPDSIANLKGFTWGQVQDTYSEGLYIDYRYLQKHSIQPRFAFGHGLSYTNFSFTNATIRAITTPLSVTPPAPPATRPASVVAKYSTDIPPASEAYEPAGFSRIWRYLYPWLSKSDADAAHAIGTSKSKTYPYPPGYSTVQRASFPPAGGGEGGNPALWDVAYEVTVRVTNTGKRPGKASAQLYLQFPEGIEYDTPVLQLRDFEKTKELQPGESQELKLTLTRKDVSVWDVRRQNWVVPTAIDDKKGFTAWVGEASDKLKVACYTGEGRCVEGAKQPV

Take `OC[C@H]1OC(O)[C@H](O)[C@@H](O)[C@@H]1O` (stereo partly drawn) [glucose]: the Ki turned out to be 55.2 mM at HiBgl3B, 25 mM on HiBgl3A and 37.1 mM at HiBgl3C.

B1: HiBgl3B (Mycothermus thermophilus; I311F) (protein)
chain: RVVEPRDPVPQGYHAASYYPAPHGGWVSSWREAYEKAYALVSQMTLAEKVNITSGVGIYMGPCVGNTGSVDRLGFPQLCLQDSALGVASADNVTAFPAGITTGATWDKQLMYARGVAIGKEFRGKGANIHLGPSVGPLGRKPLGGRNWEGFGSDPVLQGKAAALHIRGVQEQGIIATIKHLVGNEQEMYRMYHIFQEGYSANIDDRTLHELYLWPFAEAVRAGVGAAMTAYNAVNGSACSQNSYLINGILKDELGFQGLVMSDWLSHISGVGSALAGLDLNMPGDTNFPLFGNSLWQYELTRAVLNGSVPVDRLNDMATRVVATWYKFGQDKNHPRPNFSSNTRSRDGPLYPGALFSPSGQVNWFVNVQEDHYLVARQVAQDAITLLKNNDSLLPLDAGDLTGGKLSVFGTDAQVNPDGPNSCLARACNKGTLGMGWGSGIADYPYMDDPIGAIRKRVPDVKFYNTDSFPWFFGTPENDEVAMVFISSDSGENTLTVEGNHGDRDSAKLRAWHDGDKLVQKVAEKFKNVIVVVHTVGPLDLEPWIELPSVKAVLFAHLPGQEAGESLTNVLFGDVSPSGHLPYSITRKASDLPDSIANLKGFTWGQVQDTYSEGLYIDYRYLQKHSIQPRFAFGHGLSYTNFSFTNATIRAITTPLSVTPPAPPATRPASVVAKYSTDIPPASEAYEPAGFSRIWRYLYPWLSKSDADAAHAIGTSKSKTYPYPPGYSTVQRASFPPAGGGEGGNPALWDVAYEVTVRVTNTGKRPGKASAQLYLQFPEGIEYDTPVLQLRDFEKTKELQPGESQELKLTLTRKDVSVWDVRRQNWVVPTAIDDKKGFTAWVGEASDKLKVACYTGEGRCVEGAKQPV
In the case of B1, in “purified protein” (optimal conditions), the Km worked out at 2420 µM, the Vmax came out at 6.07 µmol/min/mg, the kcat is 9.61 s⁻¹ and the kcat/Km came to 3980 M⁻¹ s⁻¹.

B2: HiBgl3B (Mycothermus thermophilus; I311F/I81W/T517Y) (protein)
chain: B1 chain with I58W, T494Y
With B2, in “purified protein” (optimal conditions), the Km turned out to be 2480 µM, the Vmax is 2.68 µmol/min/mg, the kcat is 4.24 s⁻¹ and the kcat/Km was 1710 M⁻¹ s⁻¹.

B3: HiBgl3B (Mycothermus thermophilus; I81W) (protein)
chain: B1 chain with I58W, F288I
For the molecule B3, in the data set “purified protein” (optimal conditions), the Km turned out to be 1990 µM, the Vmax turned out to be 2.03 µmol/min/mg, the kcat amounted to 3.21 s⁻¹ and the specificity constant (kcat/Km) was 1610 M⁻¹ s⁻¹.

B4: HiBgl3B (Mycothermus thermophilus) (protein)
chain: B1 chain with F288I
B4: in the data set “purified protein” (setting [1]), the Km is 1510 µM, the Vmax was determined as 25.5 µmol/min/mg, the kcat was 40.4 s⁻¹ and the kcat/Km stood at 26800 M⁻¹ s⁻¹.

B5: HiBgl3B (Mycothermus thermophilus; T517Y) (protein)
chain: B1 chain with F288I, T494Y
For B5, in “purified protein” (optimal conditions), the Km came out at 2370 µM, the Vmax was determined as 9.51 µmol/min/mg, the kcat was determined as 15.1 s⁻¹ and the kcat/Km came to 6360 M⁻¹ s⁻¹.

B6: HiBgl3C (Mycothermus thermophilus) (protein)
chain: T2 sequence (A0A191KCR0 18-733)
With B6, in the data set “purified protein” (setting [2]), the Km was 200 µM and the kcat/Km was 1.56e+06 M⁻¹ s⁻¹.

B7: HiBgl3A (Mycothermus thermophilus) (protein)
chain: NRHRQVIGRNHLNHHHRSQRELAYSPPSYPSPWMDPKAAEWQNAYAKAKAFVSKLTLLEKVNLTTGVGWASEQCVGNTGSVPRLGLRGLCLHDSPLGIRGSDYNSAFPSGQTTAATFDRILMYRRGYAMGKEAKGKGINVLLGPVAGPLGRMPAAGRNWEGFSPDPVLTGVGMAETIKGIQDAGVVACAKHLIGNEQEHFRQAGEDYGFNITEALSSNIDDKTMHELYLWPFVDAVRAGVGSVMCAYTQVNNSYSCQNSYLLNYLLKNELGFQGFVMSDWQAQHAGVSAAVAGLDMSMPGDTTFNTGVSFWGANLTLAVLNGTVPRYRIDDMAMRIMAAFFKVHPDIHLDPVNFSFWTRQTYGPLHWRAGDGYQQVNFHVDVREDHHLLIREIAAKGTVLLKNTGGLPLKKPKFIAVIGDDAGPNPNGPNSCDDRGCNNGTLAMGWGSGTANFPYLITPDAALQARALRDGTRYESVLTNYALEKTETLVSQANATAIVFVNANSGEGYTRVDGNMGDRKNLTLWGNGDDLIKNVSSWCSNTIVVIHSTGPVLLTDWYNSPNITAILWAGLPGQESGNSLVDVLYGDVNPAGRTPFTWGATRESYGVDVMYKPNNDDGAPQQDFDEGVFIDYRYFDREDTPVIYEFGHGLSYTTFNYSNLKIEKHNAEPYKPTTGKTTPAPTFGQDDAYGYTGSEKYLFPPSPFRRITDYIYPYLNSTDPHEASLDPHYGQTAEQFLPPGALRADEQPLLRASGQHQPGGNPGLWDVLYTITADITNMGSVTGDEVPQLYVSLGGPQDPKVVLRGFDRLREIGPGETRQFMARLTRRDLSNWDPVLQDWVVGGHKKTVFVGKSSRKLELSAELP
On to B7, for which, in “purified protein” (pH 5.5, 60 °C, pH 5.5, 60.0 °C), the Km came to 900 µM, the Vmax was 46.2 µmol/min/mg, the kcat worked out at 73.1 s⁻¹ and the kcat/Km amounted to 81600 M⁻¹ s⁻¹.

B8: HiBgl3A (Mycothermus thermophilus; Y529T) (protein)
chain: B7 chain with Y509T
On to B8, for which, in the data set “purified protein” (optimal conditions), the Km stood at 2450 µM, the Vmax is 43 µmol/min/mg, the kcat was 68.2 s⁻¹ and the kcat/Km is 27800 M⁻¹ s⁻¹.

One may read the Km as the substrate concentration at which the rate is half of its maximum. What is called Vmax is the top rate of the reaction or transport when substrate is in excess. The term kcat denotes the number of substrate molecules converted per active site and unit of time at saturation. The kcat/Km is the second-order rate constant that governs catalysis at low substrate concentration.
